Results reported in the supplement of paper PMC11246515.
± gives the standard deviation of the averaged measurements.

Assay: total protein half-life in vivo (active degradation + dilution); higher = more stable protein
[1] = E. coli NCM3722 delta-clpP delta-lon delta-hslV, growth: N-lim chemostat, doubling time 6 h
[2] = E. coli NCM3722 delta-clpP, growth: N-lim chemostat, doubling time 6 h
[3] = E. coli NCM3722 delta-hslV, growth: N-lim chemostat, doubling time 6 h
[4] = E. coli NCM3722 delta-lon, growth: N-lim chemostat, doubling time 6 h
[5] = E. coli NCM3722 delta-smpB, growth: N-lim chemostat, doubling time 6 h
[6] = wild type E. coli NCM3722, growth: C-lim chemostat, doubling time 3 h
[7] = wild type E. coli NCM3722, growth: C-lim chemostat, doubling time 6 h
[8] = wild type E. coli NCM3722, growth: C-lim chemostat, doubling time 12 h
[9] = wild type E. coli NCM3722, growth: N-lim chemostat, doubling time 6 h
[10] = wild type E. coli NCM3722, growth: N-lim chemostat, doubling time 12 h
[11] = wild type E. coli NCM3722, growth: P-lim chemostat, doubling time 6 h
[12] = wild type E. coli NCM3722, growth: P-lim chemostat, doubling time 12 h

Sequence	total protein half-life in vivo [1] [h]	total protein half-life in vivo [2] [h]	total protein half-life in vivo [3] [h]	total protein half-life in vivo [4] [h]	total protein half-life in vivo [5] [h]	total protein half-life in vivo [6] [h]	total protein half-life in vivo [7] [h]	total protein half-life in vivo [8] [h]	total protein half-life in vivo [9] [h]	total protein half-life in vivo [10] [h]	total protein half-life in vivo [11] [h]	total protein half-life in vivo [12] [h]
MVLGKPQTDPTLEWFLSHCHIHKYPSKSTLIHQGEKAETLYYIVKGSVAVLIKDEEGKEMILSYLNQGDFIGELGLFEEGQERSAWVRAKTACEVAEISYKKFRQLIQVNPDILMRLSAQMARRLQVTSEKVGNLAFLDVTGRIAQTLLNLAKQPDAMTHPDGMQIKITRQEIGQIVGCSRETVGRILKMLEDQNLISAHGKTIVVYGTR [P0ACJ8]	5.31 ± 0.51	5.17 ± 0.55	4.68 ± 0.23	4.86 ± 0.09	4.55 ± 0.33	2.92 ± 0.22	5.84 ± 0.064	10 ± 0.63	4.582 ± 0.038	7.59 ± 0.18	5.09 ± 0.27	9.72 ± 0.62
MVNLVIVSHSSRLGEGVGELARQMLMSDSCKIAIAAGIDDPQNPIGTDAVKVMEAIESVADADHVLVMMDMGSALLSAETALELLAPEIAAKVRLCAAPLVEGTLAATVSAASGADIDKVIFDAMHALEAKREQLGLPSSDTEISDTCPAYDEEARSLAVVIKNRNGLHVRPASRLVYTLSTFNADMLLEKNGKCVTPESINQIALLQVRYNDTLRLIAKGPEAEEALIAFRQLAEDNFGETEEVAPPTLRPVPPVSGKAFYYQPVLCTVQAKSTLTVEEEQDRLRQAIDFTLLDLMTLTAKAEASGLDDIAAIFSGHHTLLDDPELLAAASELLQHEHCTAEYAWQQVLKELSQQYQQLDDEYLQARYIDVDDLLHRTLVHLTQTKEELPQFNSPTILLAENIYPSTVLQLDPAVVKGICLSAGSPVSHSALIARELGIGWICQQGEKLYAIQPEETLTLDVKTQRFNRQG	5.07 ± 0.8	5.24 ± 0.96	4.67 ± 0.96	4.07 ± 0.32	3.51 ± 0.52	3.39 ± 0.48	6.02 ± 0.54	10 ± 0.98	4.01 ± 0.29	6.3 ± 0.85	5.33 ± 0.27	11.4 ± 1.5
MVPSTFSRLKAARCLPVVLAALIFAGCGTHTPDQSTAYMQGTAQADSAFYLQQMQQSSDDTRINWQLLAIRALVKEGKTGQAVELFNQLPQELNDAQRREKTLLAVEIKLAQKDFAGAQNLLAKITPADLEQNQQARYWQAKIDASQGRPSIDLLRALIAQEPLLGAKEKQQNIDATWQALSSMTQEQANTLVINADENILQGWLDLQRVWFDNRNDPDMMKAGIADWQKRYPNNPGAKMLPTQLVNVKAFKPASTNKIALLLPLNGQAAVFGRTIQQGFEAAKNIGTQPVAAQVAAAPAADVAEQPQPQTVDGVASPAQASVSDLTGEQPAAQPVPVSAPATSTAAVSAPANPSAELKIYDTSSQPLSQILSQVQQDGASIVVGPLLKNNVEELLKSNTPLNVLALNQPENIENRVNICYFALSPEDEARDAARHIRDQGKQAPLVLIPRSSLGDRVANAFAQEWQKLGGGTVLQQKFGSTSELRAGVNGGSGIALTGSPITLRATTDSGMTTNNPTLQTTPTDDQFTNNGGRVDAVYIVATPGEIAFIKPMIAMRNGSQSGATLYASSRSAQGTAGPDFRLEMEGLQYSEIPMLAGGNLPLMQQALSAVNNDYSLARMYAMGVDAWSLANHFSQMRQVQGFEINGNTGSLTANPDCVINRNLSWLQYQQGQVVPVS	5.639 ± 0.023	5.812 ± 0.034	5.89 ± 0.37	6.49 ± 0.16	6.45 ± 0.83	3.11 ± 0.16	5.614 ± 0.025	11.2 ± 1	6.03 ± 0.11	13.1 ± 1.8	5.91 ± 0.45	11.5 ± 0.52
MVQRITIAPQGPEFSRFVMGYWRLMDWNMSARQLVSFIEEHLDLGVTTVDHADIYGGYQCEAAFGEALKLAPHLRERMEIVSKCGIATTAREENVIGHYITDRDHIIKSAEQSLINLATDHLDLLLIHRPDPLMDADEVADAFKHLHQSGKVRHFGVSNFTPAQFALLQSRLPFTLATNQVEISPVHQPLLLDGTLDQLQQLRVRPMAWSCLGGGRLFNDDYFQPLRDELAVVAEELNAGSIEQVVYAWVLRLPSQPLPIIGSGKIERVRAAVEAETLKMTRQQWFRIRKAALGYDVP	5.21 ± 0.14	5.59 ± 0.96	4.95 ± 0.13	5.07 ± 0.77	4.67 ± 0.12	2.86 ± 0.26	5.71 ± 0.085	9.47 ± 0.64	5 ± 0.25	8.62 ± 0.69	5.79 ± 0.17	10.9 ± 0.49
MVSLEKNDHLMLARQLPLKSVALILAGGRGTRLKDLTNKRAKPAVHFGGKFRIIDFALSNCINSGIRRMGVITQYQSHTLVQHIQRGWSFFNEEMNEFVDLLPAQQRMKGENWYRGTADAVTQNLDIIRRYKAEYVVILAGDHIYKQDYSRMLIDHVEKGARCTVACMPVPIEEASAFGVMAVDENDKIIEFVEKPANPPSMPNDPSKSLASMGIYVFDADYLYELLEEDDRDENSSHDFGKDLIPKITEAGLAYAHPFPLSCVQSDPDAEPYWRDVGTLEAYWKANLDLASVVPELDMYDRNWPIRTYNESLPPAKFVQDRSGSHGMTLNSLVSGGCVISGSVVVQSVLFSRVRVNSFCNIDSAVLLPEVWVGRSCRLRRCVIDRACVIPEGMVIGENAEEDARRFYRSEEGIVLVTREMLRKLGHKQER [P0A6V1]	6.16 ± 0.19	–	6.42 ± 1	5.94 ± 0.29	5.54 ± 0.52	3.34 ± 0.11	6.04 ± 0.72	12.2 ± 0.15	5.535 ± 0.042	9.99 ± 0.24	6.46 ± 0.65	12.2 ± 0.32
MVTHRQRYREKVSQMVSWGHWFALFNILLSLVIGSRYLFIADWPTTLAGRIYSYVSIIGHFSFLVFATYLLILFPLTFIVGSQRLMRFLSVILATAGMTLLLIDSEVFTRFHLHLNPIVWQLVINPDENEMARDWQLMFISVPVILLLELVFATWSWQKLRSLTRRRRFARPLAAFLFIAFIASHVVYIWADANFYRPITMQRANLPLSYPMTARRFLEKHGLLDAQEYQRRLIEQGNPDAVSVQYPLSELRYRDMGTGQNVLLITVDGLNYSRFEKQMPALAGFAEQNISFTRHMSSGNTTDNGIFGLFYGISPSYMDGILSTRTPAALITALNQQGYQLGLFSSDGFTSPLYRQALLSDFSMPSVRTQSDEQTATQWINWLGRYAQEDNRWFSWVSFNGTNIDDSNQQAFARKYSRAAGNVDDQINRVLNALRDSGKLDNTVVIITAGRGIPLSEEEETFDWSHGHLQVPLVIHWPGTPAQRINALTDHTDLMTTLMQRLLHVSTPASEYSQGQDLFNPQRRHYWVTAADNDTLAITTPKKTLVLNNNGKYRTYNLRGERVKDEKPQLSLLLQVLTDEKRFIAN [P0AD27]	6.51 ± 0.23	–	–	5.92 ± 0.086	6.0496 ± 0.0024	3.37 ± 0.44	5.62 ± 0.63	12.8 ± 0.27	6.18 ± 0.89	12.9 ± 1.1	6.34 ± 0.1	11.8 ± 0.67
MVTKKQSRVPGRPRRFAPEQAISAAKVLFHQKGFDAVSVAEVTDYLGINPPSLYAAFGSKAGLFSRVLNEYVGTEAIPLADILRDDRPVGECLVEVLKEAARRYSQNGGCAGCMVLEGIHSHDPQARDIAVQYYHAAETTIYDYIARRHPQRAQCVTDFMSTVMSGLSAKAREGHSIEQLCATAAMAGEAIKTILEE	4.87 ± 0.78	4.19 ± 0.7	–	5.66 ± 2.6	2.87 ± 0.24	2.66 ± 0.17	4.19	4.59 ± 4.8	3.48 ± 0.37	6.59 ± 0.21	–	6.26
